Here are results for 15 sequences from the DeepSol protein solubility set.

This data set in a line: soluble on expression in E. coli; label from the status in PepcDB or PDB records.
Regarding “MVMVNFTAGKWISEPKVSEVTSEFVSITTEPKTDFWQRSYYGFRNENAPALLIDSKDNFTFTAKVSFAYQQLFDQCGLIIYLDNENWFKASIEYENQSFSRLGSVVTNLGYSDWATTDIPLPKEIWYRLSRRGPDFLIESSFDGLVFNQMRIFHLHRLGETTIEMGKCNPPLPTQKVVSFGVYACSPSESSFTAKFTEMSLEPCKWLAHLEHHHHHH”, the “soluble on expression in E. coli” value is “soluble”. For the sequence “MEQQPQLNDHNKQEYPPMHTAEHLLNATMVKTFGCPRSRNAHIERKKSKCDYILPTCPTDAEIQAIEDKVNEVISQNLPVTVEFMTHEQAKGIVDLSKLPADASETLRIIRIGDYDACACIGLHVSNTSEVGTFKIISHDYNEERQTLRLRFKLIEKK”, the “soluble on expression in E. coli” value is “not soluble”. Take “MGIVSAASLIKVINEKQLKMAQDQNPLTALPGNRAIGGFIADSCSDGDETRFFCYCDFDNFKPFNDKYGFNAGDHAITLFSALMRRYFFAGDCFLGHIGGDDFFIGVRDWSVEELMEILERLLSDFHDDVAGLYSDEDRAAGCMKGQDRNGLEHHHHHH”: the “soluble on expression in E. coli” value is given as “soluble”. “MGSDKIHHHHHHMKCPTETLPMMRCNQILDAAERLIESQGIVSFKFSQLAKEVGCSTGTLYKFFERKEDVLVCLFLRSATSNHLPIFIDKHPELSELEKVLLPVLFTFETISRSKSFFTLRSVSVNTMVWQLASDEKVERFKKRINAFWGWFTDSLHAAVEQGELQATPLQIKELVQGLTFYLTGSLTQFESQLIAPEYLSNRRETCYRHLAKLMGQYKWNQALTPELFDSLEARTKAFFDQHYRDHMTCAACSALSGVNLKDRPACVRQAYQ”: the “soluble on expression in E. coli” value was “not soluble”. As for “MAGKPKLHYFNGRGRMEPIRWLLAAAGVEFEEKFIGSAEDLGKLRNDGSLMFQQVPMVEIDGMKLVQTRAILNYIASKYNLYGKDIKERALIDMYTEGMADLNEMILLLPLCRPEEKDAKIALIKEKTKSRYFPAFEKVLQSHGQDYLVGNKLSRADISLVELLYYVEELDSSLISNFPLLKALKTRISNLPTVKKFLQPGSPRKPPADAKALEEARKIFRF”, the “soluble on expression in E. coli” value was “soluble”. “MSLMDYGIDIWGNENFIIKNGKVCINYEKKPAIIDIVKELRDDGYKGPLLLRFPHLIQKQIENIYGNFNKARKEFGYKGGFNAVYPLKVNQYPGFVKNLVKLGKDYNYGLEAGSKAELLLAMAYNNEGAPITVNGFKDRELINIGFIAAEMGHNITLTIEGLNELEAIIDIAKERFKPKPNIGLRVRLHSAGVGIWAKSGGINSKFGLTSTELIEAVNLLKENKLLEQFTMIHFHLGSQITEIHPLKKALNEAGNIYTELRKMGAKNLKAINLGGGLAVEYSQFKNEKSRNYTLREYANDVVFILKNIAEQKKDLEPDIFIESGRFVAANHAVLIAPVLELFSQEYAENKLILKKQNPKLIDELYDLYKSIKPSNALEYLHDSIDHLESILTLFDLGYVDLQDRSNAEILTHLITKKAILLLGDKQNPADLLAIQDEVQERYLVNFSLFQSMPDFWGLEQNFPIMPLDRLDEEPTRSASIWDITCDSDGEISYSKDKPLFLHDVDVEKENYFLGFFLVGAYQEVLGMKHNLFTHPTEAIISINEKGYEVEGIIEAQSILDTLEDLDYDIHAIMDILNERISNSKLVNDKQKKHILGELYLFLNDNGYLKSIGVEGHHHHHH”: the “soluble on expression in E. coli” value was “soluble”. Turning to “VKLLTDLFKAGLRTPSTDQIQKISMELSFYGKIESKNVFYWFQNHKARERQKCRKISTVKFDHRQDTDLSKPRRDNVRRHQLPAKG”, the “soluble on expression in E. coli” value is “not soluble”.

With “MGSDKIHHHHHHMIEIGKRCTLEIVKRVDFGVYLNAHEFGQVLLPNKVAPQGCEVGDSVEVFLYLDSEDMVIATTKRPKAQVGQFAYLKAVATGPYGAFLDWGLDKDLMLPFGEQHREIEVGRSYLVYVYVNSADDRIVASSKIDKFLDRTPPPYRNGQEVSLIIAGTTDLGYKAIIDNGHWGVLYKNEVYQPLKFGQRIKGFIKRVRSDDKIDLILQRGAKEELDKHATAILMKLNQAGGFLPLTDKTDAEVIYAELAMSKKAFKKSIGGLYKQQKIAIEADGIRLTE”, the “soluble on expression in E. coli” value is listed as “not soluble”.

In the case of “MQHQTLYQDDFVEIFEQDNEVFIKTFKPGLPPKQLNEILSSLPQIQITSFNCLNDALNIVSPSPQKFGRLKERIAITVTPDELKAFVTFNLPREELDIKNRENLIKETYQVLKKKNINFGIKKELFFGDLESGKKYLIAEGVPAVDGEDCKIRMYELEEPRPEIREDGKANYYELKLINKVKAGDWLGERIDATEGFPGKTVYGTTIHPVRGKNYPLSYDKNTVYEVVQNKKVVLYSKIDGAVHYDGNKITVSNHLEIDGDVDFKTGNIIFDGYVTIKGTVTDGFYVEATKDIEINSPLGLGNVKGIKSREGSIYIKGGISSKSFSEISARKNIYTKFVDNVKLSCGGTAHIGFYCINSMVEAKEVFIESIKGNIMGGQVKAEVKITVPVLGSPLEPRTVLILTGFDRKKLSKMLEDIVDRIDRIKEEQMDIKLYLSKQDPFKEMTSRETAEYNSKMQRMSELKAELKSLEEEKKNIARYLKTKGEGEIAITKKVYPNCSIIIKNIQTEIKEPCLATTFFAADGEIKRV”, the “soluble on expression in E. coli” value is “soluble”.

Take “MGSDKIHHHHHHMDTDLLKTFLEVSRTRHFGKAAENLYLTRSAVSFRIKQLENILGLELFERLRNNIQPTPAGERMLGHAEAVLNAWERAKQDIILNQQHSAQLALSAGDNIWDAFLQGFLQPLHLGLEGVALRTDVLPATVMTRQLIERTLDIAITFDPPKLDGVILVKLAEVKLYLVSKQAGVKLTQTPTLPYIKVDWGTAFNITHAQDFTMLPLPVLHTSSARMALDFILNNGGCAFLPEALIKPYLDNGSLYVVDDAKCIHRHVYAAYWAENERLAYIEQAISILTTDKRTE”: the “soluble on expression in E. coli” value was “not soluble”. “MAFLARKTSSLLPATTSSTVKHMIYDEPHFAMQNSLAKLIKEKINPNVAQWEKSGRYPAHFVFKMLGQLGVFAVNKPVDYGGTGRDFAMSIAIAEQIGAVDCGSIPMSVMVQSDMSTPALAQFGSDSLRNRFLRPSINGDLVSSIAVSEPHAGSDVSAIRTHARRYGSDLIINGSKMWITNGDQADWACVLVNTSNAKNLHKNKSLVCIPLDSIGVHRSTPLDKLGMRSSDTVQLFFEDVRVPSSYIIGEEGRGFAYQMNQFNDERLVTVAVGLLPLQKCINETIEYARERLIFGKTLLDQQYVQFRLAELEAELEATRSLLYRTVLARCQGEDVSMLTAMAKLKIGRLARKVTDQCLQIWGGAGYLNDNGISRAFRDFRIFSIGAGCDEVMMQIIHKTQSKRQQKRI”: the “soluble on expression in E. coli” value is “not soluble”. “VLLKEGARGSAPSAPPPLAVPAFFPLEPLTVNLQSDDGVQHYLRVGLSLKLTDPKAQEYLTQHMPELRSRILLALSNKHPEQLATLEGKRALADELKTLIEQPTQPGNQSARVDDVLFTEFVVQ”: the “soluble on expression in E. coli” value was “not soluble”. For the sequence “MDALEGESFALSFSSASDAEFDAVVGYLEDIIMDDEFQLLQRNFMDKYYLEFEDTEENKLIYTPIFNEYISLVEKYIEEQLLQRIPEFNMAAFTTTLQHHKDEVAGDIFDMLLTFTDFLAFKEMFLDYRAEKEGRGLDLSSGLVVTSLCKSSSLPASQNNLRHGHHHHHH”, the “soluble on expression in E. coli” value is “not soluble”. To “MAHHHHHHMTVAKKCMVVLQHGSHGTHLDLACLSQYLKAKDPRLIVWESYKNEGMRTDDGVVPCGERLADNLIREIKELCSTPTQSGGDGGREKVVVQMSFVCHSMGGLIVREALPRVWDKVESQKGKLEIEWNMFCTIATPHGGVCQMASTLRYYLGRLISFFYSTSYHDMFLGSDVLTDRLLSPKHLSCLAAFKRRLLVSSINDILVPLMSSGFMLTPSQRGLPGDMLREEQKQLCAFNEREMYDKMRTITEIPKEEWPANKFLAERRIAKTLVQAVGNFDSVVVDLRSPRLEELYEDRKRRTTAWYGANKRSHQAMVCKPPFDTVEEAFGFVSHMVGDEVLATFQE” belongs “not soluble”; to “MIDITLPLTDIHRHLDGNIRAQTILDLGRQFNIALPAQTLETLIPHVQVTSTEPDLVSFLTKLDWGVKVLASLDACRRVAFENIEDAARNGLHYVELRFSPGYMAMAHQLPIAGVVEAVIDGVRDGCNTFGVEARLIGIMSRTFGEAACLQELDALLAHRENITALDLAGDELGFPGSLFLSHFNRARDAGWHITVHAGEAAGPESIWQAIRELGAERIGHGVKAVEDRALMDFLAQQRIGIESCLTSNIQTSTVASLADHPLKTFLEHGVLASLNTDDPAVQGVDIIHEYHVAAPAAGLSREQIRQAQINGLEIAFLSDSEKRALREKVAEA”, “not soluble”.
